{"source": "patent US20160068860A1", "about": "“TRANSGENIC PLANTS” (CONSEJO SUPERIOR DE INVESTIGACIONES CIENTIFICAS (CSIC), priority 2013, published 2016)", "key": {"HAB1": {"test_system": "HAB1", "experiment": "BiFC assay with HAB1 in N. benthamiana leaves", "assay_type": "cell-based", "conditions": "no exogenous ABA", "protocol": "Experiments were performed basically as described by Voinnet et al., (2003). The different binary vectors described above where introduced into Agrobacterium tumefaciens C58C1 (pGV2260) (Deblaere et al., 1985) by electroporation and transformed cells were selected in LB plates supplemented with kanamycin (50 μg/ml). Then, they were grown in liquid LB medium to late exponential phase and cells were harvested by centrifugation and resuspended in 10 mM morpholinoethanesulphonic (MES) acid-KOH pH 5.6 containing 10 mM MgCl2 and […] acetosyringone to an OD600 nm of 1. These cells were mixed with an equal volume of Agrobacterium C58C1 (pCH32 35S:p19) expressing the silencing suppressor p19 of tomato bushy stunt virus (Voinnet et al., 2003) so that the final density of Agrobacterium solution was about 1. Bacteria were incubated for 3 h at room temperature and then injected into young fully expanded leaves of 4-week-old N. benthamiana plants. Leaves were examined after 3-4 days under a Leica TCS-SL confocal microscope and laser scanning confocal imaging system. Quantification of fluorescent protein signal was done as described (Gampala et al., 2007) using the National Institutes of Health (NIH) Image software ImageJ v1.37. […]"}, "PP2CA": {"target": "PP2CA (Arabidopsis thaliana, UniProt O80920+P49598, A194T)", "sequence (P49598 whole entry, one chain of several)": "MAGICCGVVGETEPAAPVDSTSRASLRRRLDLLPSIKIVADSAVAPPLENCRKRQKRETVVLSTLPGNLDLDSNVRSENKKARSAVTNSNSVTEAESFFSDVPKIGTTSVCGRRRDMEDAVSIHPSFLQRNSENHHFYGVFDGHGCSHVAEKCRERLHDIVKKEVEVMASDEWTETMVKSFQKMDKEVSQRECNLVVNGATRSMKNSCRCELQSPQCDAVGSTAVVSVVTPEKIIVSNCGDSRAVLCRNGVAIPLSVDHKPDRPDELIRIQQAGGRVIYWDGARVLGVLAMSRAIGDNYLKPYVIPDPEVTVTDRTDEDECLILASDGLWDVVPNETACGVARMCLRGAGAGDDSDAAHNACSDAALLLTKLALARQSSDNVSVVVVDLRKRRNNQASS", "experiment": "In vitro reconstitution: PP2CA-mediated dephosphorylation of OST1, ΔC-ABF2, ΔC-ABI5, SLAC1 1-186", "assay_type": "biochemical", "design": "made in house; host or cells: E. coli BL21 (DE3)", "protocol": "Phosphatase activity was measured using as a substrate either pNPP or phosphorylated ΔC-ABF2, ΔC-ABI5 and SLAC11-186 proteins. For the pNPP substrate, assays were performed in a 100 μl solution containing 25 mM Tris-HCl pH 7.5, 2 mM MnCl2 and 5 mM pNPP. Assays contained 2 μM phosphatase (PP2CA or HAB1), 4 μM receptor and the indicated concentrations of ABA. Phosphatase activity was recorded with a ViktorX5 reader at 405 nm every 60 seconds over 30 minutes and the activity obtained after 30 minutes is indicated in the graphics. In order to obtain phosphorylated ΔCABF2, ΔC-ABI5 and SLAC11-186 proteins, OST1 phosphorylation assays were done basically as described previously (Dupeux et al., 2011 b). ΔC-ABF2 and SLAC11-186 N-terminal fragments were prepared as described (Antoni et al., 2012; Vahisalu et al., 2010). ΔC-ABI5 recombinant protein (amino acid residues 1-200, containing the C1, C2 and C3 target sites of ABA-activated SnRK2s) was expressed in the pETM11 vector as described above. The reaction mixture containing the OST1 kinase and either ΔCABF2, ΔC-ABI5 or SLAC11-186 recombinant proteins were incubated for 50 min at room temperature in 30 μl of kinase buffer: 20 mM Tris-HCl pH 7.8, 20 mM MgCl2, 2 mM MnCl2, and 3.5 μCi of γ-32ATP (3000 Ci/mmol). Thus, OST1 was autophosphorylated and in turn it phosphorylated ΔC-ABF2, ΔC-ABI5 and SLAC11-186 proteins. […] The reaction was stopped by adding Laemmli buffer and the proteins were separated by SDS-PAGE using an 8% acrylamide gel and transferred to an Immobilon-P membrane (Millipore). Radioactivity was detected and quantified using a Phosphorimage system (FLA5100, Fujifilm). After scanning, the same membrane was used for Ponceau staining. The data presented are averages of at least three independent experiments."}, "[1]": {"conditions": "30 μM ABA, 1:10 phosphatase:receptor"}}}
{"molecule": "PYL4A194T: AtPYL4 ABA receptor mutant polypeptide with A194T substitution (SEQ ID NO. 60; nucleic acid SEQ ID NO: 55); also over-expressed in plants (protein, listed as Arabidopsis thaliana) MLAVHRPSSAVSDGDSVQIPMMIASFQKRFPSLSRDSTAARFHTHEVGPNQCCSAVIQEISAPISTVWSVVRRFDNPQAYKHFLKSCSVIGGDGDNVGSLRQVHVVSGLPAASSTERLDILDDERHVISFSVVGGDHRLSNYRSVTTLHPSPISGTVVVESYVVDVPPGNTKEETCDFVDVIVRCNLQSLAKITENTAAESKKKMSL", "values": [{"measurement": "interaction with HAB1 (BiFC), PYL4 versus PYL4A194T", "setting": "HAB1", "result": "did not differ significantly"}, {"measurement": "inhibition of dephosphorylation by PP2CA of ΔC-ABI5 and SLAC1 1-186", "setting": "PP2CA; [1]", "result": "inhibited better than PYL4"}, {"measurement": "inhibition of dephosphorylation of ΔC-ABF2", "setting": "PP2CA; [1]", "result": "not more effective than PYL4"}, {"measurement": "inhibition of dephosphorylation of ΔC-ABF2, ΔC-ABI5 and SLAC1 1-186, better than PYL4", "setting": "PP2CA; 0.5-1 μM ABA, 1:1 phosphatase:receptor ratio", "result": "2-3 fold"}, {"measurement": "inhibition of dephosphorylation of PP2CA targets, difference to PYL4", "setting": "PP2CA; absence of ABA, 1:10 phosphatase:receptor", "result": "did not find significant differences"}, {"measurement": "protection of OST1 phosphorylation compared to PYL4", "setting": "PP2CA; low ABA concentrations, 1:1 phosphatase:receptor ratio", "result": "improved"}]}
